Each block holds one binder with its values, some of them ahead of it.
How the values were obtained:
[1] = molecular target: recombinant native human IGF-1 (human) (UniProt P05019); assay: ELISA, undiluted culture supernatant
[2] = molecular target: T1, Thermus thermophilus SlyD-IGF-1 (74-90) chimeric polypeptide; assay: ELISA, undiluted culture supernatant
T1 sequence: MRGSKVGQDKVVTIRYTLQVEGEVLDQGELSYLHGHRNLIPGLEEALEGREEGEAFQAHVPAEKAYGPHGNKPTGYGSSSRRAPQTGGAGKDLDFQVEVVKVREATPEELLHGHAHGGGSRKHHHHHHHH

[3] = molecular target: T2, recombinant wild-type Thermus thermophilus SlyD (His6 tagged control) (Thermus thermophilus); assay: ELISA, undiluted culture supernatant
T2 sequence: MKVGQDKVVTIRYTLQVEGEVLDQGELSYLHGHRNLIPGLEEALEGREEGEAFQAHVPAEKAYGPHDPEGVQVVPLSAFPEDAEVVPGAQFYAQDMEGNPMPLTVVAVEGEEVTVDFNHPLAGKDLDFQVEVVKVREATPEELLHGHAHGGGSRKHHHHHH

[4] = molecular target: recombinant native human IGF-1 (human) (UniProt P05019); assay: SPR at 37 °C, antibody captured, analyte in solution
[5] = molecular target: recombinant native human IGF-1 (human) (UniProt P05019); assay: SPR at 25 °C, antibody captured, antigen in solution
[6] = molecular target: T1, Thermus thermophilus SlyD-IGF-1 (74-90) chimeric polypeptide; assay: as above
[7] = molecular target: recombinant native human IGF-1 (human) (UniProt P05019); assay: SPR at 37 °C, antibody captured, analyte in solution; remark: listed apart in the source
[8] = molecular target: T1, Thermus thermophilus SlyD-IGF-1 (74-90) chimeric polypeptide; assay: as above

reactivity [1]: 2430 mE | reactivity [2]: 2150 mE | reactivity [3]: 32 mE | Ka [4]: 2.2e+10 M⁻¹ | Kd [4]: 0.046 nM | koff [4]: 0.00014 s⁻¹ | kon [4]: 3.1e+06 M⁻¹ s⁻¹ | t/2-diss [4]: 81 min | Kd [5]: 0.01 nM | MR [5]: 2 | koff [5]: 2.1e-05 s⁻¹ | kon [5]: 2e+06 M⁻¹ s⁻¹ | t/2-diss [5]: 560 min | Kd [6]: 0.01 nM | MR [6]: 2 | koff [6]: 1e-05 s⁻¹ | kon [6]: 710000 M⁻¹ s⁻¹ | t/2-diss [6]: 1110 min | koff [7]: 1e-05 s⁻¹ | t/2-diss [7]: 1160 min | koff [8]: 1e-05 s⁻¹ | t/2-diss [8]: 1160 min
B1: monoclonal antibody M-11.11.17 (antibody, from a related filing, V domains shown)
VH: QVQLQQSGAELVRPGSSVKISCKASGYAFSNLWMNWVKQRPGQGLEWIGQIYPGDGDTNYYGDFKGKATLTADSSSSTAYMQLSRLTSEDSAVYFCARIGYYGMDYWGQGTSVTVSS
VL: DVVLTQTPLSLPVNIGDEASISCKSTKSLLSSDGLTYLDWYLQKPGQSPQVLIYLVSNRFSGVPDRFSGSGSGTDFTLKISRVEAEDLGVYYCFQSNYLPTFGAGTKLELK

reactivity [1]: 2110 mE | reactivity [2]: 1900 mE | reactivity [3]: 36 mE | Ka [4]: 2.2e+08 M⁻¹ | Kd [4]: 4.5 nM | koff [4]: 0.006 s⁻¹ | kon [4]: 1.3e+06 M⁻¹ s⁻¹ | t/2-diss [4]: 2 min | Kd [5]: 1.6 nM | MR [5]: 1.7 | koff [5]: 0.0015 s⁻¹ | kon [5]: 920000 M⁻¹ s⁻¹ | t/2-diss [5]: 8 min | Kd [6]: 2.4 nM | MR [6]: 1.8 | koff [6]: 0.00069 s⁻¹ | kon [6]: 290000 M⁻¹ s⁻¹ | t/2-diss [6]: 17 min | koff [7]: 1e-05 s⁻¹ | t/2-diss [7]: 1160 min | koff [8]: 1e-05 s⁻¹ | t/2-diss [8]: 1160 min
B2: monoclonal antibody M-10.7.9 (antibody, from a related filing, V domains shown)
VH: QVQLQQSGAELVRPGSSVKISCKASGYAFSSYWMNWVKQRPGQGLEWIGQIYPGDGDTNHNGKFKGKATLTADKSSSTVYMQLSSLTSEDSAVYFCARSGDYYGKDYWGQGTTLTVSS
VL: DIVLTQTPPSLPVNMGQKATISYKATKSLLNTDGYTYMHWNQQKPGQPPKLLIYLVSNRESGVPDRFSGSGSGTDFTLNINTVEEEDAATYYCHHSNELPHTFGAGTKLEIK
